Measurements published in publication PMC8366450, “Human CPPED1 belongs to calcineurin‐like metallophosphoesterase superfamily and dephosphorylates PI3K‐AKT pathway component PAK4” (Journal of Cellular and Molecular Medicine, 2021).

Biological target: T1, human recombinant CPPED1 with N-terminal His-V5 dual tag (human, UniProt Q9BRF8 1-314)
T1 construct: Calcineurin-like phosphoesterase domain-containing protein 1 (CPPED1), human; cloned into PSF-OXB20-NH2-6HIS-V5-TEV; 38.9 kDa including the His-V5 dual tag; The vector name holds a TEV site; no cleavage is told; also called calcineurin-like phosphoesterase domain-containing protein 1; purified recombinant CPPED1; not shown: His6, N-terminal, kept; V5, N-terminal, kept
Experiment: peptide or protein array; HuProt v3.1 human proteome microarray; >20 000 human recombinant proteins immobilised on the array; purified His-V5-CPPED1 applied
Settings: both partners purified

binding result | Binder
binds | CRK proto-oncogene, adaptor protein (natural protein, human, UniProt P46108 1-304, looked up, CRK proto-oncogene, adaptor protein, human, as on the HuProt v3.1 array; source: S. cerevisiae, purified (GST tag); on bought array: HuProt v3.1, Cambridge Protein Arrays) MAGNFDSEERSSWYWGRLSRQEAVALLQGQRHGVFLVRDSSTSPGDYVLSVSENSRVSHYIINSSGPRPPVPPSPAQPPPGVSPSRLRIGDQEFDSLPALLEFYKIHYLDTTTLIEPVSRSRQGSGVILRQEEAEYVRALFDFNGNDEEDLPFKKGDILRIRDKPEEQWWNAEDSEGKRGMIPVPYVEKYRPASASVSALIGGNQEGSHPQPLGGPEPGPYAQPSVNTPLPNLQNGPIYARVIQKRVPNAYDKTALALEVGELVKVTKINVSGQWEGECNGKRGHFPFTHVRLLDQQNPDEDFS
binds | Interferon-stimulated exonuclease gene 20 (enzyme, Interferon-stimulated exonuclease gene 20, human, as on the HuProt v3.1 array; also called ISG20; source: S. cerevisiae, purified (GST tag); on bought array: HuProt v3.1, Cambridge Protein Arrays) not shown
binds | HIV-1 Tat interactive protein 2 (natural protein, human, UniProt Q9BUP3 1-242, looked up, also called HTATIP2; source: S. cerevisiae, purified (GST tag); on bought array: HuProt v3.1, Cambridge Protein Arrays) MAETEALSKLREDFRMQNKSVFILGASGETGRVLLKEILEQGLFSKVTLIGRRKLTFDEEAYKNVNQEVVDFEKLDDYASAFQGHDVGFCCLGTTRGKAGAEGFVRVDRDYVLKSAELAKAGGCKHFNLLSSKGADKSSNFLYLQVKGEVEAKVEELKFDRYSVFRPGVLLCDRQESRPGEWLVRKFFGSLPDSWASGHSVPVVTVVRAMLNNVVRPRDKQMELLENKAIHDLGKAHGSLKP
binds | Cell division cycle associated 3 (natural protein, human, UniProt Q99618 1-268, looked up, Cell division cycle associated 3, human, as on the HuProt v3.1 array; also called CDCA3; source: S. cerevisiae, purified (GST tag); on bought array: HuProt v3.1, Cambridge Protein Arrays) MGSAKSVPVTPARPPPHNKHLARVADPRSPSAGILRTPIQVESSPQPGLPAGEQLEGLKHAQDSDPRSPTLGIARTPMKTSSGDPPSPLVKQLSEVFETEDSKSNLPPEPVLPPEAPLSSELDLPLGTQLSVEEQMPPWNQTEFPSKQVFSKEEARQPTETPVASQSSDKPSRDPETPRSSGSMRNRWKPNSSKVLGRSPLTILQDDNSPGTLTLRQGKRPSPLSENVSELKEGAILGTGRLLKTGGRAWEQGQDHDKENQHFPLVES
